# From US20170101466A1
# Columns and labels:
# [1] = molecular target: soluble mouse BLyS (mouse) (UniProt Q9WU72); experiment: cell-based or functional assay
# [2] = molecular target: soluble human BLyS (human) (UniProt Q9Y275); experiment: cell-based or functional assay
Binder,"IC50 mBLyS stimulated, mouse splenic B-cell proliferation [1] [ng/mL]","IC50 hBLyS stimulated, mouse splenic B-cell proliferation [2] [ng/mL]",hBLyS B-cell proliferation (IC50) [2]
"human TACI (immunoglobulin fusion) (Fc fusion, part only; not given: immunoglobulin part, UniProt O14836 30-110, looked up, part only) chain, part: AMRSCPEEQYWDPLLGTCMSCKTICNHQSQRTCAAFCRSLSCRKEQGKFYDHLLRDCISCASICGQHPKQCAYFCENKLRS",7,7,–
"14F11 IgG expressed in HEK293 cells (antibody, V domains shown) VH: QVQLVQSGAEVKKPGSSVKVSCKASGGTFSSYAISWVRQAPGQGLEWMGRINPNSGGTNYAQKFQGRVTMTRDTSISTAYMELSRLRSDDTFVYYCAREGYDFLTGYTLGGMDVWGQGTTVTVSS VL: QSVLTQPPSVSAAPGQKVTISCSGSSSNIGNNYVSWYQQLPGTAPKLLIYDNNKRPSGIPDRFSASKSGTSASLAISGLQAEDEADYYCQSYDSSLSGVVFGGGTKLTVLG",–,–,12
